# T1: second subunit of the Jack Bean (Canavalia ensiformis) β-hexosaminidase
# T1 chain: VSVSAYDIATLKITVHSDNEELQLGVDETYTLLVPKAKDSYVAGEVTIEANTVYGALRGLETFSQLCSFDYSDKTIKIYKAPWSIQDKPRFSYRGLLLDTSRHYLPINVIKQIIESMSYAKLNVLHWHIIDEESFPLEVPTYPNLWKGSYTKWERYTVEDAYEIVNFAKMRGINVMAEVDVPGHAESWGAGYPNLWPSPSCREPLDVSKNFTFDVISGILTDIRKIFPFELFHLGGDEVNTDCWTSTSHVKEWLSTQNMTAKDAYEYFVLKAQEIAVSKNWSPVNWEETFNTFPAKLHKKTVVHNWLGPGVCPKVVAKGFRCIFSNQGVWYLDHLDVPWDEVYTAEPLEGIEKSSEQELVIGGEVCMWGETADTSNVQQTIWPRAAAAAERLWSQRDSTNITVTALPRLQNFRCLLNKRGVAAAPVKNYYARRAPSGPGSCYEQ
# B1: first subunit of the Jack Bean (Canavalia ensiformis) β-hexosaminidase (protein)
# chain: SIIEPTESLTYLWPLPADFTSGDETLSVDPALTLSVAGNGGGSSILRDAFDRYRGIIFKHSSVGFS
# modifications: not fully specified
# Biological target: T1, second subunit of the Jack Bean …
protein,measurement,value
B1,β-hexosaminidase (b-Hex) activity,Dissociation of the two chains led to a complete loss of activity

# Source: patent US20240110168
